According to PMC11546553, “Chitin Translocation Is Functionally Coupled with Synthesis in Chitin Synthase” (International Journal of Molecular Sciences, 2024):

Biological target: the molecule itself
Assay: cryo-EM structure; purified PsCHS at 3 mg/mL in digitonin, incubated with 0.5 mM UDP-GlcNAc and 1 mM Mn2+ for 15 min or 40 min at 25 °C before freezing; UDP/Mn2+-bound state resolved for both samples

B1: Phytophthora sojae chitin synthase 1 (enzyme)
chain: MSGAPPPSSGFAPRSYGQQPLSHAPRSSMMSVEYDGIPLPPPSIRSCGSQQYVTSYIPTGAAFPPSSVQDMISSMKSYASATDLVRTYSEIPSVEEALSTLDRAAAALNARRYRDALKLYLEGGYAMANVAERQANPKICNLLTSKGFETLNWCARLCDWIEGRIKEKHPRPGVHKVGIPVSNWDEDWVGPFMDEEEARRMWYTPVYCPHPIDFSNLGYRLRCVETGRRPRLMICITMYNEGPQQLKATLKKLANNLAYLKEQMPGDEKSLTGAFAGDDVWQNVLVCIVADGREQVHPKTLDYLEAIGLYDEDLLTINSAGIGAQCHLFEHTLQLSVNGKCLLPIQTVFALKENKASKLDSHHWYFNAFAEQIQPEYTAVMDVGTMLTKSALYHLLFAFERNHQIGGACGQLTVDNPFENLSNWVISAQHFEYKISNILDKSLESCFGFISVLPGAFSAYRYEAIRGAPLDAYFQTLNIELDVLGPFIGNMYLAEDRILSFEVVARKNCNWTMHYVKDAVARTDVPHDLVGLISQRKRWLNGAFFATLFSIWNWGRIYSESKHTFVRKMAFLVFYVYHLLYTAFGFFLPANLYLALFFIVFQGFQQNRLEFIDTSEYSQTVLDCAVYIYNFSYLFGLLMLIIIGLGNNPKHMKLTYYFVGAVFGLMMMLSSLVGAGIFFSTPATVHSIVVSILTVGVYFIASALHGEVHHIFMTFTHYTALIPSFVNIFTIYSFCNLQDLSWGTKGLHDDPLLAASLDETEKGDFKDVIAKRRALEELRREEKERVENRKKNFEAFRTNVLLTWAFSNLIFALFVVYFASSSTYMPVLYIFVASLNTCRLLGSIGHWVYIHTEGLRGRVIDKSECGNGTGRYPQNSYVQLEEHYAALAEDQRTYASGRTNASVRTVNDVSSAA
notes: Phytophthora sojae chitin synthase 1 (PsCHS1), the PsCHS gene in pcDNA3.1; the final models lack residues 1-22, stretches within 40-90, 738-761 and 860-925; also called PsCHS; PsCHS1; source: HEK293F cells, transfected (pcDNA3.1), purified (digitonin solubilisation, Ni-NTA, Superose 6 Increase SEC)
stoichiometry N: 2
